Laboratory results: patent US20240024520A1 (UCB, published 2024)
Values joined by “and” are separate entries in the source; they are usually repeats but may differ in a detail not shown here. Equal entries are not always repeated. Where two headings read alike, the source gives them in different places. Ends that are not written are not given here. * marks the point of attachment. Cam = NC(=O)C*

Tests used:
[1] = biological target: T1, human complement component C5 (human, UniProt P01031 19-673; P01031 678-1676)
[2] = biological target: T1, human complement component C5; remark: listed apart in the source
[3] = biological target: T2, human complement component C3 (human, UniProt P01024 23-667; P01024 672-1663); assay: counter screen
T2 construct: also called biotinylated C3

[4] = biological target: T3, ovalbumin (UniProt P01012 2-386); assay: counter screen
T3 sequence (looked up): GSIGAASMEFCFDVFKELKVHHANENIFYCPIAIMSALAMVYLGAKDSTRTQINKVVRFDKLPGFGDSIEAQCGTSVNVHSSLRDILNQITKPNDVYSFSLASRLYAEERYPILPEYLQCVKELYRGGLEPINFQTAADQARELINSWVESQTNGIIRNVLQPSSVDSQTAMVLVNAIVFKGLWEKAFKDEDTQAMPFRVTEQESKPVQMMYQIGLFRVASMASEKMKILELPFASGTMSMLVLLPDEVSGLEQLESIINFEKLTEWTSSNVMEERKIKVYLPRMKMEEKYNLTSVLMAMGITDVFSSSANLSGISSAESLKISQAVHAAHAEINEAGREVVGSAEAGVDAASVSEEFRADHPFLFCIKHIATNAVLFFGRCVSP

[5] = biological target: T1, human complement component C5; assay: SPR single-cycle kinetics
[6] = biological target: T1, human complement component C5; assay: cell-based or functional assay
[7] = biological target: T1, human complement component C5; assay: cell-based or functional assay; remark: listed apart in the source
[8] = biological target: T4, mouse C5 (mouse, UniProt P06684 19-674; P06684 679-1680); assay: SPR single-cycle kinetics, n=1
T4 construct: mature; also called mouse C5 protein

[9] = biological target: T5, rabbit C5 (rabbit); assay: SPR single-cycle kinetics, n=1
T5 construct: mature; also called rabbit C5 protein

[10] = biological target: T1, human complement component C5; assay: cell-based or functional assay; remark: listed apart in the source
[11] = biological target: T1, human complement component C5; assay: cell-based or functional assay; remark: listed apart in the source
[12] = biological target: T1, human complement component C5; assay: phage ELISA, OD 630 nm, anti-M13 HRP; C5 coated directly and biotinylated C5 captured on streptavidin
[13] = biological target: T2, human complement component C3; assay: SPR (Biacore), C3, mean of n=3
[14] = biological target: T1, human complement component C5; assay: SPR (Biacore), C5, mean of n=3
[15] = biological target: T1, human complement component C5; assay: cell-based or functional assay; remark: listed apart in the source
[16] = biological target: T1, human complement component C5; assay: cell-based or functional assay; remark: listed apart in the source
[17] = biological target: T1, human complement component C5; assay: cell-based or functional assay; remark: listed apart in the source
[18] = biological target: T1, human complement component C5; assay: cell-based or functional assay; remark: listed apart in the source
[19] = biological target: T1, human complement component C5; assay: cell-based or functional assay; remark: listed apart in the source
[20] = biological target: T1, human complement component C5; assay: cell-based or functional assay; remark: listed apart in the source
[21] = biological target: T1, human complement component C5; assay: SPR single-cycle kinetics, human C5, n=1
[22] = biological target: T1, human complement component C5; assay: SPR multi-cycle kinetics, human C5 immobilised, mean of n=3
[23] = biological target: T6, human serum albumin (human, UniProt P02768 25-609); assay: monoclonal phage ELISA
T6 construct: also called HSA

[24] = biological target: T1, human complement component C5; assay: cell-based or functional assay; remark: listed apart in the source
[25] = biological target: T1, human complement component C5; assay: SPR, cysteines reduced and capped with iodoacetamide; K57, cysteines reduced and capped with iodoacetamide
[26] = biological target: T1, human complement component C5; assay: SPR, cysteines reduced and capped with iodoacetamide; K92, cysteines reduced and capped with iodoacetamide
[27] = biological target: T1, human complement component C5; assay: SPR single-cycle kinetics (Biacore 8K), C5 amine-coupled to a CM5 chip
[28] = biological target: T2, human complement component C3; assay: phage ELISA, OD 630 nm, anti-M13 HRP; C3 coated directly and biotinylated C3 captured on streptavidin

T4 sequence (P06684 19-674 limits assumed, chain 1 of 2): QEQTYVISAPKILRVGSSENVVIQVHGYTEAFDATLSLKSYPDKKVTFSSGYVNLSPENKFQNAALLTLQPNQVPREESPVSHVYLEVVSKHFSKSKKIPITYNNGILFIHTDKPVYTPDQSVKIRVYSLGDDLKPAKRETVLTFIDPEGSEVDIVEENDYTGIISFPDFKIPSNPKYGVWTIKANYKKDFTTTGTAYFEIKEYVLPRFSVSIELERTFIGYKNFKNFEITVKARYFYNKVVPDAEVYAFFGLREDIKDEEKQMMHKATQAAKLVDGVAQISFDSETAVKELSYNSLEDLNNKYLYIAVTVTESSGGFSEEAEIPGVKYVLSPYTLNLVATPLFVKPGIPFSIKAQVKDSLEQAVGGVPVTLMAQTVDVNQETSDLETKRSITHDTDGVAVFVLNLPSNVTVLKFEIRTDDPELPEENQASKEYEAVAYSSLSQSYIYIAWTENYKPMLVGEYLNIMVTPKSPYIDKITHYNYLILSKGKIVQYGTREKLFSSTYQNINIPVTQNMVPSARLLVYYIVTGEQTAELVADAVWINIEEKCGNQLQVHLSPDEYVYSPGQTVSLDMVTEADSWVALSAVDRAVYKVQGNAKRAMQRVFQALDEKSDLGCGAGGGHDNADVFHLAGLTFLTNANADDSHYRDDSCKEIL
T4 sequence (P06684 679-1680 limits assumed, chain 2 of 2): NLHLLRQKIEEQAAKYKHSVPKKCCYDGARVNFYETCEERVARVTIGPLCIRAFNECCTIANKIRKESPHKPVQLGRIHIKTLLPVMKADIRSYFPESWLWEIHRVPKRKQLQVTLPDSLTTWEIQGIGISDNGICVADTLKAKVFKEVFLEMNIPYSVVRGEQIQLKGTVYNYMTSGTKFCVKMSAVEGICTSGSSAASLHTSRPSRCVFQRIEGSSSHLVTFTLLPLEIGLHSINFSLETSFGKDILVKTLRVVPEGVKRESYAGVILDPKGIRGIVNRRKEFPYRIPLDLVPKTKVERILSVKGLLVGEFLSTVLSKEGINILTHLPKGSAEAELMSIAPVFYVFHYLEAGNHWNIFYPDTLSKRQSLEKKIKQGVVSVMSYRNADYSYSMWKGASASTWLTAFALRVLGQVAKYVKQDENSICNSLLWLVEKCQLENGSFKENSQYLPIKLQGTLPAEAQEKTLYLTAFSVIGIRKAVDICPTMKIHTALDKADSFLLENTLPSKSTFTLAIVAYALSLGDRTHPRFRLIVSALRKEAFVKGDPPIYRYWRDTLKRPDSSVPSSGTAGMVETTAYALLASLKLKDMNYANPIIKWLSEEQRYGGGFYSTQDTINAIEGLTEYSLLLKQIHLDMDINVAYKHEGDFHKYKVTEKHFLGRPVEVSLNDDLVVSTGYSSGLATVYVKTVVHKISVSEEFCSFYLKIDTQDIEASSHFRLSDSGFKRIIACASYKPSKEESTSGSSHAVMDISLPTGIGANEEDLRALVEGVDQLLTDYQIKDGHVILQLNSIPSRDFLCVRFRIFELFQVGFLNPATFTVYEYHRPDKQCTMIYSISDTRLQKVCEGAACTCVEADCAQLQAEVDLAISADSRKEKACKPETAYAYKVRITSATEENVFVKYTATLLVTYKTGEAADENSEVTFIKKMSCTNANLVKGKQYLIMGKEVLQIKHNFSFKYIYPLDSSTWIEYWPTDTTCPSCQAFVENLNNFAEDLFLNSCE
T2 sequence (P01024 23-667 limits assumed, chain 1 of 2): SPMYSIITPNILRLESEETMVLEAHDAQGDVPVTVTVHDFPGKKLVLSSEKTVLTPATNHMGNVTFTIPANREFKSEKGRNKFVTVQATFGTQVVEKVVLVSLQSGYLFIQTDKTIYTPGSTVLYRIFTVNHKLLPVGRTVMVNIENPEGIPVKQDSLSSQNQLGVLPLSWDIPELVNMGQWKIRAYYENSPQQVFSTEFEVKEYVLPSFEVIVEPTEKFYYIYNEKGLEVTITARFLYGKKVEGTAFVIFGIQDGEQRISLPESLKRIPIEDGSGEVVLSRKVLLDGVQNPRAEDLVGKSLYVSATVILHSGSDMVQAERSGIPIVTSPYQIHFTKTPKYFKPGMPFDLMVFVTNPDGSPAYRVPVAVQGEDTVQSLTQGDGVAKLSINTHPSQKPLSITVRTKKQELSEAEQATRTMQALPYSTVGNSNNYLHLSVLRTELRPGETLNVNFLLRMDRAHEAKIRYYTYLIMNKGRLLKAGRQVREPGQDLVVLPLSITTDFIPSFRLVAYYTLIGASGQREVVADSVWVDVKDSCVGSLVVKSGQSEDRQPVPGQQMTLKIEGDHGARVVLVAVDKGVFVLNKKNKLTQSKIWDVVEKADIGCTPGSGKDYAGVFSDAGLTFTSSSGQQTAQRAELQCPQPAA
T2 sequence (P01024 672-1663 limits assumed, chain 2 of 2): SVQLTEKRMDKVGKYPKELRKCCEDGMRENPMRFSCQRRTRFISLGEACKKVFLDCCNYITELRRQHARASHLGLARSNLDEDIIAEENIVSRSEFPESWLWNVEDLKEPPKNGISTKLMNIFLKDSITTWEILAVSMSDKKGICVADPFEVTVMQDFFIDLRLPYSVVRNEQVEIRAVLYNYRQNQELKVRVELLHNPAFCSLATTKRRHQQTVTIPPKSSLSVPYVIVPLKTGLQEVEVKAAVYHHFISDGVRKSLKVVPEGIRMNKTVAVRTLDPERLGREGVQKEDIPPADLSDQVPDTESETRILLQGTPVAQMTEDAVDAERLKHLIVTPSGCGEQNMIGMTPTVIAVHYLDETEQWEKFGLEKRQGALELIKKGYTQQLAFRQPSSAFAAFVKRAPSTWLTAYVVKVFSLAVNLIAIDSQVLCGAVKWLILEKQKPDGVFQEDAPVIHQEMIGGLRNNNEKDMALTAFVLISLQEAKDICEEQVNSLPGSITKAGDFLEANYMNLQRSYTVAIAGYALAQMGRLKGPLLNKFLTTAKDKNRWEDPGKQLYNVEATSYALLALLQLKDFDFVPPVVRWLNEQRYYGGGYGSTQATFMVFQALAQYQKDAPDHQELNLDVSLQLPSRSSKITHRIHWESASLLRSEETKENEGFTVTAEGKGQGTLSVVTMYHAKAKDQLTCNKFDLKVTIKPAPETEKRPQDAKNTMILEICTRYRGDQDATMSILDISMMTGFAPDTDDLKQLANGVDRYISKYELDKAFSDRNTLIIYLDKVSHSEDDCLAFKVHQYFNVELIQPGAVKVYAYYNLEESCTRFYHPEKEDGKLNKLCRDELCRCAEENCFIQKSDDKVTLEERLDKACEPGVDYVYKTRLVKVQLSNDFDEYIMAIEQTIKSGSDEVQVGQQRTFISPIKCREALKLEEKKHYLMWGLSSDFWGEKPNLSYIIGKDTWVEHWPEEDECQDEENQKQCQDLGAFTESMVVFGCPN
T1 sequence (P01031 19-673 limits assumed, chain 1 of 2): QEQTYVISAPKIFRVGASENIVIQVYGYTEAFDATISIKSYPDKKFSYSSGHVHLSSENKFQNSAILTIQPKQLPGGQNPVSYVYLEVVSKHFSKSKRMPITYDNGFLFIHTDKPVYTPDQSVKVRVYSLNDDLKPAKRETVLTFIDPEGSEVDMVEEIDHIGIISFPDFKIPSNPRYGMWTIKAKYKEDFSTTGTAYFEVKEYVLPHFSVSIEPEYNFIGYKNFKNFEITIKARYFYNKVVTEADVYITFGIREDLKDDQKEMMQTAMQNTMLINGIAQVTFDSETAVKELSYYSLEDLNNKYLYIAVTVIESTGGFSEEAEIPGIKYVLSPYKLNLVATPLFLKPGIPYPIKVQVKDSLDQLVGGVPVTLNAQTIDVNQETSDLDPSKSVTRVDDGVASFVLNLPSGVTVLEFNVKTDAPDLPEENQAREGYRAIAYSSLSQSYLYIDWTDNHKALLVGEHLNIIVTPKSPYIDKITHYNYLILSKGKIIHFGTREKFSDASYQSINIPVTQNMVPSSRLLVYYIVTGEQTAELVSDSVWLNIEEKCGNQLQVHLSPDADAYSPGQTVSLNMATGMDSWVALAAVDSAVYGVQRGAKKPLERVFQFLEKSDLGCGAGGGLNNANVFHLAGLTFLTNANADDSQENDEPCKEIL
T1 sequence (P01031 678-1676 limits assumed, chain 2 of 2): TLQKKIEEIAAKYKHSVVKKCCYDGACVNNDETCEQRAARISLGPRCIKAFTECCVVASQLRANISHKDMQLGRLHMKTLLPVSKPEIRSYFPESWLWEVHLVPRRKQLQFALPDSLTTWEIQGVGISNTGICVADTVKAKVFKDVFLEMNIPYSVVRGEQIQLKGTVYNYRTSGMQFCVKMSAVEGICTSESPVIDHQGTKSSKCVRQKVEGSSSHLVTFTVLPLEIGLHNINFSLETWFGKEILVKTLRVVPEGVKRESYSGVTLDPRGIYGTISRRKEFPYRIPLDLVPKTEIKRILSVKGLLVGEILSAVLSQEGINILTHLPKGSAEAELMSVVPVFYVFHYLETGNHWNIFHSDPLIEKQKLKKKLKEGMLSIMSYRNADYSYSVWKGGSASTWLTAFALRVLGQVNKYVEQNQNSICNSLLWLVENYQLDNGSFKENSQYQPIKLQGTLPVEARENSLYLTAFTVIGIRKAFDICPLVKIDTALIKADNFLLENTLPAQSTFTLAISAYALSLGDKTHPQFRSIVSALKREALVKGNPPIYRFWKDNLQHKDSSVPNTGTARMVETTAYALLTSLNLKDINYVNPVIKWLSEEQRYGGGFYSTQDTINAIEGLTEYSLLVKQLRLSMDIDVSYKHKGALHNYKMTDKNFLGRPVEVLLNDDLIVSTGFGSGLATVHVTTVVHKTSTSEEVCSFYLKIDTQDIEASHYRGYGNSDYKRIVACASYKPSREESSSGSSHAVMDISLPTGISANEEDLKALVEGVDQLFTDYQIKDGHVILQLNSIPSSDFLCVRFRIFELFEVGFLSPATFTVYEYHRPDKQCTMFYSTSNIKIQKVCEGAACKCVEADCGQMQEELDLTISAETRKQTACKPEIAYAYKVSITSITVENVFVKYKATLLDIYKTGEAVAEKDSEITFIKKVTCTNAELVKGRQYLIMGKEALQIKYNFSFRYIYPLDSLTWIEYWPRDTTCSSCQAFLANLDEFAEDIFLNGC

B1: K92 knob domain peptide cleaved from the 645 Fab (peptide)
peptide: GSGSVTCPEGWSECGVAIYGYECGRWGCGHFLNSGPNISPYVTTGSENLYFQ
notes: Recombinant, cut out by TEV protease
B1 was tested, and the Kd [1] was < 0.85 nM, the koff [1] was 0.000113 s⁻¹ and the kon [1] was 124000 M⁻¹ s⁻¹. For the same binder, the IC50 [2] was 7.6 nM and 7.4 nM and 7.3 nM, the Ki [2] was 3.7 nM and the binding result [3] was “no binding”. For the same binder, the binding result [4] was “no binding”, the Kd [5] was < 40 nM and the “Inhibition of alternative pathway mediated C5a release, average Emax” value [6] was 43.3%. For the same binder, the “Inhibition of alternative pathway mediated C5a release, geomean IC50” value [6] was 43.3 nM, the “Inhibition of alternative pathway mediated bacterial lysis, average Emax” value [7] was 91% and the “Inhibition of alternative pathway mediated bacterial lysis, geomean IC50” value [7] was 2.46 µM. It also gave a Kd [8] of 63.1 nM, a koff [8] of 0.00487 s⁻¹ and a kon [8] of 77200 M⁻¹ s⁻¹. It also gave a Kd [9] of 76.6 nM, a koff [9] of 0.00466 s⁻¹ and a kon [9] of 60800 M⁻¹ s⁻¹.

B2: K8 knob domain peptide cleaved from the 645 Fab (peptide)
peptide: GSVCPDGFNWGYGCAAGSSRFCTRHDWCCYDERADSHTYGFCTGNRVENLYFQ
notes: as for B1
In the case of B2, the Kd [1] is reported as 17.3 nM, the koff [1] is reported as 0.000357 s⁻¹ and the kon [1] is reported as 26100 M⁻¹ s⁻¹. For the same binder, the IC50 [2] was 20.7 nM and 31.2 nM and 26.1 nM and 25.6 nM, the Ki [2] was 12.8 nM and the binding result [3] was “no binding”. The binding result [4] was “no binding”, the Kd [5] was < 40 nM and the “Inhibition of classical pathway mediated C5a release, geomean IC50” value [10] was 9.9 nM. For the same binder, the “Inhibition of alternative pathway mediated C5a release, average Emax” value [6] was 71.8%, the “Inhibition of alternative pathway mediated C5a release, geomean IC50” value [6] was 150 nM and the “Inhibition of classical pathway mediated bacterial lysis, geomean IC50” value [11] was 16.9 µM. For the same binder, the “Inhibition of alternative pathway mediated bacterial lysis, average Emax” value [7] was 98.1%, the “Inhibition of alternative pathway mediated bacterial lysis, geomean IC50” value [7] was 25.8 µM and the Kd [8] was 4.69 nM. The koff [8] was 0.00019 s⁻¹, the kon [8] was 40400 M⁻¹ s⁻¹ and the Kd [9] was 9.12 nM. The koff [9] was 0.000296 s⁻¹ and the kon [9] was 32400 M⁻¹ s⁻¹.

B3: hC3nb1 VHH displayed on M13 phage (VHH)
VHH: QVQLVETGGGLVQAGGSLRLSCAASGSIFSLNAMGWFRQAPGKEREFVATINRSGGRTYYADSVKGRFTISRDNGKNMVYLQMHSLKPEDTAIYYCAAGTGWSPQTDNEYNYWGQGTQVTVSS
notes: not shown: poly-histidine, c-myc tag, M13 pIII
B3: no binding [12].

B4: hC3nb1-K57 C-term with C-terminal single-chain Fc tag (bispecific antibody, V domains shown, not shown: a dimerising Fc or GST)
VH: QVQLVETGGGLVQAGGSLRLSCAASGSIFSLNAMGWFRQAPGKEREFVATINRSGGRTYYADSVKGRFTISRDNGKNMVYLQMHSLKPEDTAIYYCAAGTGWSPQTDNEYNYWGQGTQVTVSS
notes: also called hC3Nb1 C-Term
B4 showed a Kd [13] of 0.302 nM and a Kd [14] of 0.271 nM.

B5: hC3nb1-K57 loop 1 with C-terminal single-chain Fc tag (bispecific antibody, not shown: a dimerising Fc or GST)
VHH: QVQLVETGGGLVQASGGGSGCPPGYKSGVDCSPGSECKWGCYAVDGRRYGGYGADSGVSGGGSGSLRLSCAASGSIFSLNAMGWFRQAPGKEREFVATINRSGGRTYYADSVKGRFTISRDNGKNMVYLQMHSLKPEDTAIYYCAAGTGWSPQTDNEYNYWGQGTQVTVSS
With B5 the “alternative pathway C5b neoepitope ELISA; IC50 (read off the curve)” value [15] was ~200 nM and the “classical pathway C5b neoepitope ELISA; IC50 (read off the curve)” value [16] was ~50 nM.

B6: K8 knob domain peptide, chemically synthesised, free energy method (peptide)
peptide: VCPDGFNWGYGCAAGSSRFCTRHDWCCYDERADSHTYGFCTGNRV
modifications: disulfide (positions not given here); not fully specified
notes: Disulphides formed in glutathione redox buffer; also called K8chemFE; K8chem
In the case of B6, the “Classical pathway C5b deposition ELISA, average Emax” value [17] is reported as 47.3%, the “Classical pathway C5b deposition ELISA, geomean IC50” value [17] is reported as 9.8 nM and the “Alternative pathway C5b neoepitope ELISA, average Emax” value [18] is reported as 91.5%. The “Alternative pathway C5b neoepitope ELISA, geomean IC50” value [18] was 46.1 nM, the “classical pathway complement ELISA (C5b deposition); IC50 (read off the curve)” value [19] was ~30 nM and the “alternative pathway complement ELISA (C5b deposition); IC50 (read off the curve)” value [20] was ~80 nM. For the same binder, the Kd [21] was 12.1 nM, the koff [21] was 0.000397 s⁻¹ and the kon [21] was 32900 M⁻¹ s⁻¹. For the same binder, the Kd [22] was 5.46 nM, the koff [22] was 0.000385 s⁻¹ and the kon [22] was 70500 M⁻¹ s⁻¹.

B7: ultralong CDR-H3 of SEQ ID NO: 498 displayed on M13 phage (other)
chain: TTVHQQTHQDQTCPDGYTRTNYYCRRDGCGSWCNGAERQQPCIRGPCCCDLTYRTAYEYHVET
notes: as for B3
B7: binds [23].

B8: hC3nb1-K57 loop 2 delta proline with C-terminal single-chain Fc tag (bispecific antibody, V domains shown, not shown: a dimerising Fc or GST)
VH: WFRQASGGGSGCPPGYKSGVDCSPGSECKWGCYAVDGRRYGGYGADSGVSGGGSKEREFVATINRSGGRTYYADSVKGRFTISRDNGKNMVYLQMHSLKPEDTAIYYCAAGTGWSPQTDNEYNYWGQGTQVTVSS
notes: also called hC3Nb1Loop2ΔP
In the case of B8, the Kd [14] is reported as 0.864 nM and the “classical pathway C5b neoepitope ELISA; IC50 (read off the curve)” value [16] is reported as ~20 nM.

In the case of TCPEGWSECGVAIYGYECGRWGCGHFLNSGPNISPYVST (also called chemical K92) [K92chemFE knob domain peptide], the “alternative pathway complement ELISA (C5b deposition); IC50 (read off the curve)” value [20] is reported as ~70 nM, the “alternative pathway haemolysis assay; IC50 (read off the curve)” value [24] is reported as ~200 nM and the Kd [22] is reported as 0.411 nM. For the same binder, the koff [22] was 0.000101 s⁻¹ and the kon [22] was 283000 M⁻¹ s⁻¹.

B9: K57, reduced and cysteines capped with iodoacetamide (peptide)
peptide: GC(Cam)PPGYKSGVDC(Cam)SPGSEC(Cam)KWGC(Cam)YAVDGRRYGGYGADSGVGS
notes: also called K57 (loss of disulphide bonds)
Work on B9 yielded a Kd [25] of 76 nM.

B10: K92, reduced and cysteines capped with iodoacetamide (peptide)
peptide: TC(Cam)PEGWSEC(Cam)GVAIYGYEC(Cam)GRWGC(Cam)GHFLNSGPNISPYVST
notes: also called K92 (loss of disulphide bonds)
For B10, the Kd [26] was 2000 nM.

GSKSCREGYIDGGGCCLPGSCRGCACSYYDWLKCPRDCRGTSEEENLYFQ (Recombinant, cut out by TEV protease) [K60 knob domain peptide cleaved from the 645 Fab]: no binding [3]; no binding [4]; no binding [27].

B11: hC3nb1-K149 (K149 ultralong CDR-H3 in framework 3 of hC3nb1) displayed on M13 phage (bispecific antibody)
VHH: QVQLVETGGGLVQAGGSLRLSCAASGSIFSLNAMGWFRQAPGKEREFVATINRSGGRTYYADSVKGRFTISRDNGTSVLQSTKPQKSCPDGFSYRSWDDFCCPMVGRCLAPRNTYTTEFTIEAKNMVYLQMHSLKPEDTAIYYCAAGTGWSPQTDNEYNYWGQGTQVTVSS
notes: also called hC3nb1-K149 CDR-H3; not shown: poly-histidine, c-myc tag, M13 pIII
B11: no binding [28]; no binding [12].
